{"source": "patent US20160297851A1", "about": "(Scripps Research, published 2016)", "binders": {"B1": {"name": "arylomycin C16 (peptide)", "peptide": "SAGXAY", "modifications": "C16 fatty acyl (palmitoyl) tail on the N-terminus of N-methyl-D-Ser2; D-Ala3; N-methyl-4-hydroxyphenylglycine (MeHpg) at 5, written X; biaryl bridge between MeHpg5 and Tyr7 (macrocycle MeHpg5-Ala6-Tyr7); free C-terminal carboxyl; the filing counts the lipid tail as position 1", "notes": "Synthetic lipohexapeptide derived from the natural product arylomycin A2, with a straight C16 fatty acid tail; It has non-standard and D-residues and is macrocyclic, so it is a borderline case of 'peptide'; also called arylomycin A-C16; Arylomycin A2 C16"}}, "key": {"[1]": {"biological_target": "T1, P84S variant of detergent-solubilized full-length E. coli SPase (His6x-tagged) (Escherichia coli, UniProt P00803 1-324)", "assay": "steady-state binding by increase of arylomycin fluorescence; detergent-solubilized full-length His-tagged SPase"}, "[2]": {"biological_target": "T2, detergent-solubilized full-length wild type E. coli SPase (His6x-tagged) (Escherichia coli, UniProt P00803 1-324)", "T2 construct": "Plasmid pET23-lepB came from Dr. Mark Paetzel; also called full-length Pro-variant of E. coli SPase; full length His-tagged E. coli SPase; not shown: His6x tag of plasmid pET23-lepB", "assay": "steady-state binding by increase of arylomycin fluorescence; detergent-solubilized full-length His-tagged SPase"}, "[3]": {"biological_target": "T2, detergent-solubilized full-length wild …", "assay": "steady-state increase of arylomycin fluorescence (ex 320 nm, em 410 nm) on binding detergent-solubilised full-length wild type E. coli SPase"}, "[4]": {"biological_target": "T1, P84S variant of detergent-solubilized …", "assay": "steady-state increase of arylomycin fluorescence (ex 320 nm, em 410 nm) on binding detergent-solubilised full-length E. coli SPase P84S"}, "[5]": {"biological_target": "T3, E. coli MG1655 SPase (LepB), wild type, in the bacteria (Escherichia coli, UniProt P00803 1-324)", "assay": "cell-based or functional assay"}, "[6]": {"biological_target": "T4, P. aeruginosa PAO1 SPase (LepB), wild type, in the bacteria (Pseudomonas aeruginosa, UniProt Q9I5G7 1-284)", "T4 sequence": "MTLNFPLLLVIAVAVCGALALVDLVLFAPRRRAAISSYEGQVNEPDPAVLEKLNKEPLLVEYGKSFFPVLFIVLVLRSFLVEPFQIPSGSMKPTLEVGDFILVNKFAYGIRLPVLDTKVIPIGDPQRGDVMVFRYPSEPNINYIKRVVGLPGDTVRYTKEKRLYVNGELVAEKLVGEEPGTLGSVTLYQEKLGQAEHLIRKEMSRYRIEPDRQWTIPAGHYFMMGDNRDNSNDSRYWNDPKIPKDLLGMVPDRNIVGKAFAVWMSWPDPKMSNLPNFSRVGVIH", "assay": "cell-based or functional assay"}, "[7]": {"biological_target": "T5, S. aureus SPase (SpsB) P29S, strain PAS8001, in the bacteria (Staphylococcus aureus)", "assay": "cell-based or functional assay"}, "[8]": {"biological_target": "T6, Staphylococcus epidermidis signal peptidase IB S31P (strain PAS9002) (Staphylococcus epidermidis)", "T6 chain": "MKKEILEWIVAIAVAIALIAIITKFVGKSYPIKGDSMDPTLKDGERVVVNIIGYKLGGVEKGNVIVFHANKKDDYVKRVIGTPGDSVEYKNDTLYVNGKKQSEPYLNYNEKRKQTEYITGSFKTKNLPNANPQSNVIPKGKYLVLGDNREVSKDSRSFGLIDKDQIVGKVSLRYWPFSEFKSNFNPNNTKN", "assay": "cell-based or functional assay"}, "[9]": {"biological_target": "T7, P. aeruginosa SPase (LepB) P84S, strain PAS2006, in the bacteria (Pseudomonas aeruginosa, UniProt Q9I5G7 1-284)", "T7 sequence": "T4 sequence", "assay": "cell-based or functional assay"}, "[10]": {"biological_target": "T8, S. aureus NCTC 8325 SPase (SpsB), wild type, in the bacteria (Staphylococcus aureus)", "assay": "cell-based or functional assay"}, "[11]": {"biological_target": "T9, Staphylococcus epidermidis RP62A signal peptidase IB, wild type (Staphylococcus epidermidis)", "T9 chain": "T6 chain with P31S", "assay": "cell-based or functional assay"}, "[12]": {"biological_target": "E. coli SPase (LepB) P84S, strain PAS0232, in the bacteria (Escherichia coli, UniProt P00803 1-324)", "assay": "cell-based or functional assay"}, "[13]": {"biological_target": "T10, Staphylococcus epidermidis signal peptidase IB S29P (strain PAS9001) (Staphylococcus epidermidis)", "T10 chain": "T6 chain with S29P, P31S", "assay": "cell-based or functional assay"}, "[14]": {"biological_target": "T6, Staphylococcus epidermidis signal …", "assay": "cell-based or functional assay"}, "[15]": {"biological_target": "T10, Staphylococcus epidermidis signal …", "assay": "cell-based or functional assay"}, "[16]": {"biological_target": "T3, E. coli MG1655 SPase (LepB), wild type, …", "assay": "cell-based or functional assay", "remark": "listed apart in the source"}, "[17]": {"biological_target": "T4, P. aeruginosa PAO1 SPase (LepB), wild …", "assay": "cell-based or functional assay", "remark": "listed apart in the source"}, "[18]": {"biological_target": "T5, S. aureus SPase (SpsB) P29S, strain …", "assay": "cell-based or functional assay", "remark": "listed apart in the source"}, "[19]": {"biological_target": "E. coli MG1655 SPase (LepB) P84L, in the bacteria (E. coli, UniProt P00803 1-324)", "assay": "cell-based or functional assay"}, "[20]": {"biological_target": "T8, S. aureus NCTC 8325 SPase (SpsB), wild …", "assay": "cell-based or functional assay", "remark": "listed apart in the source"}, "[21]": {"biological_target": "T9, Staphylococcus epidermidis RP62A signal …", "assay": "cell-based or functional assay"}, "[22]": {"biological_target": "T10, Staphylococcus epidermidis signal …", "assay": "cell-based or functional assay"}}, "note": "Positions count from the first letter of the chain named. Like-named read-outs stand apart in the source and are kept apart here."}
{"binder": "B1", "values": [{"measurement": "Kd", "setting": "[1]", "result": 5.7, "unit": "nM"}, {"measurement": "Kd", "setting": "[2]", "result": 60, "unit": "nM"}, {"measurement": "EC50 (read off the curve)", "setting": "[3]", "result": "~100", "unit": "nM"}, {"measurement": "EC50 (read off the curve)", "setting": "[4]", "result": "~10", "unit": "nM"}, {"measurement": "Kd", "setting": "[4]", "result": 5.73, "unit": "nM"}, {"measurement": "MIC", "setting": "[5]", "result": "> 128", "unit": "µg/mL"}, {"measurement": "MIC", "setting": "[6]", "result": "> 128", "unit": "µg/mL"}, {"measurement": "MIC", "setting": "[7]", "result": 2, "unit": "µg/mL"}, {"measurement": "MIC", "setting": "[8]", "result": "> 128", "unit": "µg/mL"}, {"measurement": "MIC", "setting": "[9]", "result": 8, "unit": "µg/mL"}, {"measurement": "MIC", "setting": "[10]", "result": "> 128", "unit": "µg/mL"}, {"measurement": "MIC", "setting": "[11]", "result": 0.25, "unit": "µg/mL"}, {"measurement": "MIC", "setting": "[12]", "result": 2, "unit": "µg/mL"}, {"measurement": "MIC", "setting": "[13]", "result": 8, "unit": "µg/mL"}, {"measurement": "fold elevation of MIC compared to the wild type strain", "setting": "[14]", "result": "> 256", "unit": "fold"}, {"measurement": "fold elevation of MIC compared to the wild type strain", "setting": "[15]", "result": 32, "unit": "fold"}, {"measurement": "MIC", "setting": "[16]", "result": "> 64", "unit": "µg/mL"}, {"measurement": "MIC", "setting": "[17]", "result": "> 64", "unit": "µg/mL"}, {"measurement": "MIC", "setting": "[18]", "result": 2, "unit": "µg/mL"}, {"measurement": "MIC", "setting": "[19]", "result": 0.5, "unit": "µg/mL"}, {"measurement": "MIC", "setting": "[20]", "result": "> 64", "unit": "µg/mL"}, {"measurement": "MIC", "setting": "[21]", "result": 0.5, "unit": "µg/mL"}, {"measurement": "MIC", "setting": "[22]", "result": 8, "unit": "µg/mL"}]}
